# Test results from patent publication US6878521B1, “Fibril-blocking peptide, a method for preventing fibril formation” (The University of Chicago, priority 1999, dated 2005).
# “Also recorded” adds a separate entry of the source. Where a SMILES comes first, the peptide text is derived from it. [ ]: non-standard residue; d: D form. Nle = CCCC[C@H](N)C(=O)O
# How the values were obtained:
# [1] = test system: SMA LC expressed in COS cells; experiment: aggresome formation in SMA-transfected COS cells, immunofluorescence; assay type: cell-based; conditions: for proportion of COS cells containing aggresomes: SMA-transfected, immunofluorescence, Hsp70 co-expressed, with or without ALLN; for cells exhibiting aggresomes: anti-kappa stained cells, peptides added with ALLN
# Description: COS-1 cells were transiently transfected with FuGENE 6 transfection reagent (Roche Molecular Biochemicals, Indianapolis, Ind.) according to manufacturer's instructions and analyzed two days later. Overnight incubations with various concentrations of ALLN (SEQ. ID. NO. 11) (Sigma Chemical Co., St. Louis, Mo.), 10 μM lactacystin (Calbiochem, La Jolla, Calif.), 10 μg/ml nocodazole (Sigma), or various concentrations of peptides were begun the day following transfection.
# A peptide was synthesized that fused an HIV TAT sequence (YGRKKRRQRRR) (SEQ. ID. NO. 8) with the VL derived sequence which the inventors have shown inhibit fiber formation in vitro, discussed supra. To ensure adequate flexibility and solubility, additional VL sequence was added on both sides of the active 7-mer, generating the following sequence for the TAT-TISS peptide: NH2-[…]-OH. (SEQ. ID. NO. 9) A control peptide was synthesized (TAT-PASS) in which the critical hydrophobic residues were substituted with alanines and the extended structure of the peptide destroyed by the addition of a proline (NH2-[…]-OH). (SEQ. ID. NO. 10) cells were treated with either peptide 24 h after transfection and incubated overnight in the presence of the indicated concentrations of ALLN. (SEQ. ID. NO. […]) Cells were then harvested for western blotting or immunofluorescence as described above.
# Without ALLN (SEQ. ID. NO. 11) treatment 30% of the COS cells contained aggresomes as assayed by immunofluorescence.
# Lastly, the inventors determined that the decrease in steady state level of SMA in the presence of TAT-TISS (SEQ. ID. NO. 9) peptide correlated with a decrease in the frequency of aggresome formation, by scoring anti-kappa stained cells.
# [2] = biological target: transthyretin (Homo sapiens, UniProt P02766); conditions: Peterson et al. 1998; cited from earlier work
# [3] = biological target: SMA, recombinant kappa-IV light chain variable domain (VL) (human); experiment: cell-based or functional assay
# [4] = biological target: T1, SMA (kappa-IV recombinant VL) (Homo sapiens, UniProt P06312, K56R/P66L/Q115H/T120H); experiment: agitation-based in vitro SMA fibril formation assay (fluorescence); assay type: biochemical; conditions: for inhibition of SMA fibril formation: in vitro, result in words
# T1 construct: two kappa-IV recombinant VL, LEN and SMA; made in house
# Description: Further, the inventors used an agitation-based in vitro assay to assemble fibrils from two kappa-IV recombinant VL, LEN and SMA.
# Fibril formation was measured over time at each peptide concentration. The extent of SMA fibril formation at 45 hours in the presence of various concentration so fthe peptides is plotted relative to that of SMA alone at 45 hours.
# In the BiP reactions, SMA fibril formation was assayed in the range of 1 to 1000 moles SMA per mole of fibril antagonist.
# [5] = test system: λ6 VL protein; experiment: in vitro fibril assembly of λ6 VL protein; assay type: biochemical
# [6] = test system: SMA LC expressed in COS-1 cells; experiment: biochemical assay of soluble and insoluble SMA in transfected COS-1 cells (western blot); assay type: cell-based; conditions: for intracellular aggregation of SMA: in cells, result in words; for amount of SMA recovered: 50 μM peptide, overnight, 1-10 μg/ml ALLN
# [7] = test system: SMA; experiment: co-immunoprecipitation with SMA using anti-kappa antibody; assay type: binding, human; conditions: co-transfected, metabolically labeled cells, soluble fractions
# Description: Culture, metabolic labeling, lysis and immunoprecipitation of COS-1 cells were performed as described in Dul et al. Immunol. […] The following antibodies were used in immunoprecipitations: rabbit anti-human kappa antibody (Bethyl Labs, Montgomery, Tex.); goat anti-human kappa (Caltag, Burlingame, Calif.); mouse anti-ubiquitin (StressGen, Victoria, BC, Canada).
# Endogenous Hsp70 was also associated with SMA, but was not dramatically enriched.
# Sequence of BiP (binding protein), endoplasmic reticulum chaperone, recombinant wild type (P07823 19-654): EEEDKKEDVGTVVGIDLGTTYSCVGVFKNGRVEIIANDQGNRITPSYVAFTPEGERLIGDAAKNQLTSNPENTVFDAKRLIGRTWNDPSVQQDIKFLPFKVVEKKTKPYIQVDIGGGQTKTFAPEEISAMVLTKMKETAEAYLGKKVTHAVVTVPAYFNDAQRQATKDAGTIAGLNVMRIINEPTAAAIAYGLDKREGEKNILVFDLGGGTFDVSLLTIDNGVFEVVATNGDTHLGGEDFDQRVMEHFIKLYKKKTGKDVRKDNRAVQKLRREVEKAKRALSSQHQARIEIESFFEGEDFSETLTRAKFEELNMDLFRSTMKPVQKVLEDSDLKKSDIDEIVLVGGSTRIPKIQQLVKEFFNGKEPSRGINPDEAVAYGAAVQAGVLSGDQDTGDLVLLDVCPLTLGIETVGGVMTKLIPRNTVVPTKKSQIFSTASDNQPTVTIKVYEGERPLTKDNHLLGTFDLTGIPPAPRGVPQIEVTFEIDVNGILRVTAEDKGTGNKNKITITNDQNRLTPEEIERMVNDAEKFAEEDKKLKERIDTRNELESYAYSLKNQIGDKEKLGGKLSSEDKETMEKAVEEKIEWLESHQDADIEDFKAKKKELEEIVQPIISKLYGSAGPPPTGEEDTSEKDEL
compound,measurement,setting,value
"CCCC[C@@H](C=O)NC(=O)[C@H](CC(C)C)NC(=O)[C@H](CC(C)C)NC(C)=O [ALLN, reference compound] (Ac-Leu-Leu-[Nle]-aldehyde)",proportion of COS cells containing aggresomes,[1],75%
same,cells exhibiting aggresomes,[1],about 65%
O=C(O)c1ccccc1Nc1cccc(C(F)(F)F)c1 [flufenamic acid],inhibition of conformational changes of transthyretin,[2],inhibits the conformational changes
"BiP (binding protein), endoplasmic reticulum chaperone, recombinant wild type",SMA fibril formation (fluorescence units) at 30 SMA:1 BiP,[3],< 10 percent
same,SMA fibril formation (fluorescence) at 100:1 stoichiometric ratio,[3],75 percent
same,SMA fibril formation (fluorescence) at 300:1 stoichiometric ratio,[3],100 percent
same,"inhibition of SMA ordered aggregation at 75 hours, 1 mole BiP per 100 moles SMA",[3],50%
FTLKISR,inhibition of SMA fibril formation,[4],inhibited as well as FTLTISS
same,inhibition of fibril assembly of λ6 VL protein,[5],inhibited fibril assembly
"FTLTISS [Phe71-Thr72-Leu73-Thr74-Ile75-Ser76-Ser77, peptide of positions 71 through 77 of human kappa-4 light chain variable domain]",inhibition of SMA fibril formation,[4],fibril blocking; also recorded: markedly inhibited the aggregation
same,intracellular aggregation of SMA,[6],effective in reducing intracellular aggregation
FYQLALT [reference compound],effect of prebinding BiP with peptide on BiP's suppression of fibril assembly,[4]; BiP incubated with peptide before aggregation reaction,blocked the chaperone's ability to suppress fibril assembly
"H-YGRKKRRQRRRSGSGTDATAPASSLQAED-OH [TAT-PASS, reference compound]",cells exhibiting aggresomes,[1],no significant effect
same,inhibition of SMA fibril formation,[4],does not inhibit fibril formation in vitro
same,effect on yield of SMA,"[6]; 10 μg/ml ALLN, highest peptide concentration used",only a marginal effect
same,amount of SMA recovered,[6],no effect
H-YGRKKRRQRRRSGSGTDFTLTISSLQAED-OH [TAT-TISS],cells exhibiting aggresomes,[1],25%
same,ubiquitinated forms of SMA,[6],diminished
same,amount of SMA recovered,[6],dramatically reduced
"Hsp70: heat shock protein 70, a family member of BiP; cytosolic chaperone",proportion of COS cells containing aggresomes,[1],12%
same,frequency of aggresome formation,"[1]; co-expression with SMA, result in words",decreases the frequency of aggresome formation
same,association with SMA by co-immunoprecipitation,[7],specifically co-immunoprecipitated with SMA
same,inhibition of SMA fibril formation,[4],blocked fibril formation
same,inhibition of SMA fibril formation,[4]; listed as heat shock protein (hsp)70,did inhibit fibril formation
same,ubiquitinated forms of SMA,[6],decrease in the pool of ubiquitinated SMA
same,intracellular aggregation of SMA,[6],decreases its aggregation
Lysozyme [reference compound],inhibition of SMA fibril formation,[4],no appreciable fibril blocking ability
same,inhibition of SMA fibril formation,[4]; listed as lysozome,did not significantly decrease fibril formation
PKLLIYWA,inhibition of SMA fibril formation,[4],partial inhibition
TDFTLTI,inhibition of SMA fibril formation,[4],markedly inhibited the aggregation
TRIFSKL [reference compound],inhibition of SMA fibril formation,[4],ineffective fibril blocker
albumin [reference compound],inhibition of SMA fibril formation,[4],did not significantly decrease fibril formation
ferritin [reference compound],inhibition of SMA fibril formation,[4],did not significantly decrease fibril formation
